Laboratory results published in PMC11997252.

Key:
Conditions in all cases: glycan lost; control: Fzd4 WT
[1] = cycloheximide chase, Western blot, HEK293T
[2] = surface biotinylation, streptavidin pull-down, HEK293T
[3] = plasma membrane fractionation, Western blot
[4] = immunofluorescence co-localisation with ER marker CANX
[5] = SNAP-tag staining with membrane-impermeant dye

B1: Fzd4: N59/144Q (protein)
parent chain: MAWRGAGPSVPGAPGGVGLSLGLLLQLLLLLGPARGFGDEEERRCDPIRISMCQNLGYNVTKMPNLVGHELQTDAELQLTTFTPLIQYGCSSQLQFFLCSVYVPMCTEKINIPIGPCGGMCLSVKRRCEPVLKEFGFAWPESLNCSKFPPQNDHNHMCMEGPGDEEVPLPHKTPIQPGEECHSVGTNSDQYIWVKRSLNCVLKCGYDAGLYSRSAKEFTDIWMAVWASLCFISTAFTVLTFLIDSSRFSYPERPIIFLSMCYNIYSIAYIVRLTVGRERISCDFEEAAEPVLIQEGLKNTGCAIIFLLMYFFGMASSIWWVILTLTWFLAAGLKWGHEAIEMHSSYFHIAAWAIPAVKTIVILIMRLVDADELTGLCYVGNQNLDALTGFVVAPLFTYLVIGTLFIAAGLVALFKIRSNLQKDGTKTDKLERLMVKIGVFSVLYTVPATCVIACYFYEISNWALFRYSADDSNMAVEMLKIFMSLLVGITSGMWIWSAKTLHTWQKCSNRLVNSGKVKREKRGNGWVKPGKGSETVV
degradation_or_half_life [1]: decreases
localisation_or_trafficking [2]: abolishes
localisation_or_trafficking [3]: abolishes
localisation_or_trafficking [4]: changes
localisation_or_trafficking [5]: abolishes

B2: Fzd4: N144Q (protein)
parent chain: MAWRGAGPSVPGAPGGVGLSLGLLLQLLLLLGPARGFGDEEERRCDPIRISMCQNLGYNVTKMPNLVGHELQTDAELQLTTFTPLIQYGCSSQLQFFLCSVYVPMCTEKINIPIGPCGGMCLSVKRRCEPVLKEFGFAWPESLNCSKFPPQNDHNHMCMEGPGDEEVPLPHKTPIQPGEECHSVGTNSDQYIWVKRSLNCVLKCGYDAGLYSRSAKEFTDIWMAVWASLCFISTAFTVLTFLIDSSRFSYPERPIIFLSMCYNIYSIAYIVRLTVGRERISCDFEEAAEPVLIQEGLKNTGCAIIFLLMYFFGMASSIWWVILTLTWFLAAGLKWGHEAIEMHSSYFHIAAWAIPAVKTIVILIMRLVDADELTGLCYVGNQNLDALTGFVVAPLFTYLVIGTLFIAAGLVALFKIRSNLQKDGTKTDKLERLMVKIGVFSVLYTVPATCVIACYFYEISNWALFRYSADDSNMAVEMLKIFMSLLVGITSGMWIWSAKTLHTWQKCSNRLVNSGKVKREKRGNGWVKPGKGSETVV
degradation_or_half_life [1]: decreases
localisation_or_trafficking [2]: abolishes
localisation_or_trafficking [3]: abolishes
localisation_or_trafficking [5]: abolishes

B3: Fzd4: N59Q (protein)
parent chain: MAWRGAGPSVPGAPGGVGLSLGLLLQLLLLLGPARGFGDEEERRCDPIRISMCQNLGYNVTKMPNLVGHELQTDAELQLTTFTPLIQYGCSSQLQFFLCSVYVPMCTEKINIPIGPCGGMCLSVKRRCEPVLKEFGFAWPESLNCSKFPPQNDHNHMCMEGPGDEEVPLPHKTPIQPGEECHSVGTNSDQYIWVKRSLNCVLKCGYDAGLYSRSAKEFTDIWMAVWASLCFISTAFTVLTFLIDSSRFSYPERPIIFLSMCYNIYSIAYIVRLTVGRERISCDFEEAAEPVLIQEGLKNTGCAIIFLLMYFFGMASSIWWVILTLTWFLAAGLKWGHEAIEMHSSYFHIAAWAIPAVKTIVILIMRLVDADELTGLCYVGNQNLDALTGFVVAPLFTYLVIGTLFIAAGLVALFKIRSNLQKDGTKTDKLERLMVKIGVFSVLYTVPATCVIACYFYEISNWALFRYSADDSNMAVEMLKIFMSLLVGITSGMWIWSAKTLHTWQKCSNRLVNSGKVKREKRGNGWVKPGKGSETVV
degradation_or_half_life [1]: decreases
localisation_or_trafficking [2]: abolishes
localisation_or_trafficking [3]: abolishes
localisation_or_trafficking [5]: abolishes
